For one experiment, the target named is HLA-A*2402 (human). In words: competition with 125I-labelled standard peptide for purified HLA-A*2402, gel filtration. (SEC sorts molecules by how far they enter the pores of the column.)
Experiment [1] addresses HLA-A*0301 (human). In words: competitive inhibition of 125I-labelled standard peptide binding to purified HLA, gel filtration.
Experiment [2] deals with HLA-A*1101 (human). Described as above.
The target of experiment [3] is HLA-A*1101 (human). In words: competition with 125I-labelled standard peptide for purified HLA-A*1101, gel filtration.
The next experiment addresses HLA-B*0702 (human). The experiment can be described thus: competition with 125I-labelled standard peptide for purified HLA, gel filtration.
The target of another experiment is HLA-B*3501 (human). The experiment is described as above.
The target in a further experiment is HLA-B*5301 (human). The description is as above.
Another experiment has as its target HLA-B*5101 (human). The description is as above.
A further experiment concerns the target HLA-B*5401 (human). The description is as above.
For another experiment, the target named is HLA-A*0201 (human). In words: competition with 125I-labelled standard peptide on purified HLA, gel filtration.
Experiment [4] deals with HLA-A*0301 (human). The experiment can be described thus: competition with 125I-labeled standard peptide for purified HLA-A*0301, gel filtration.
In experiment [5] the target is HLA-A*1101 (human). In words: competition with 125I-labelled standard peptide on purified HLA-A*1101, gel filtration.
Setting [6] is: remark: other sources report otherwise.

The record followed here is patent US7026443.

Where two headings read alike, the source gives them in different places.

B1: HPV18 E6 92-101 peptide … (peptide)
peptide: KLTNTGLYNL
modifications: not checked
For the molecule B1, in the experiment with HLA-A*2402 (human), the relative binding ratio (IC50 of standard peptide / IC50 of test peptide) (ratio to standard peptide) is 0.0001.

B2: HPV18 E1 position 574 peptide … (peptide)
peptide: NIHPAKDNR
modifications: not checked
Turning to B2, the binding affinity ratio (IC50 of standard peptide / IC50 of test peptide) was determined as 0.0005 with HLA-A*0301 (human) [1] and 0.0002 with HLA-A*1101 (human) [2].

B3: HPV18 E1 position 647 peptide … (peptide)
peptide: KLRAGQNHR
modifications: not checked
For the molecule B3, the binding affinity ratio (IC50 of standard peptide / IC50 of test peptide) with HLA-A*0301 (human) [1] was determined as 0.3; in the experiment with HLA-A*1101 (human) [2], 0.0013; with HLA-A*1101 (human) [3], 0.0013.

B4: HPV18 E6 peptide … (position 6, 9 amino acids) (peptide)
peptide: DPTRRPYKL
modifications: not checked
B4: the binding affinity ratio (IC50 of standard peptide / IC50 of test peptide) came out at 0.0001 with HLA-B*0702 (human); 0.0001 in the experiment with HLA-B*3501 (human); 0.0001 with HLA-B*5301 (human); 0.0001 with HLA-B*5101 (human); 0.0002 with HLA-B*5401 (human).

B5: HPV16 E7 64 … (peptide)
peptide: TLRLCVQST
modifications: not checked
For B5, in the experiment with HLA-A*0201 (human), the binding affinity ratio (IC50 of standard peptide / IC50 of test peptide) came out at 0.0061.

B6: HPV18 E1 position 80 peptide … (peptide)
peptide: QVLHVLKRK
modifications: not checked
Turning to B6, the binding affinity ratio (IC50 of standard peptide / IC50 of test peptide) in the experiment with HLA-A*0301 (human) [1] was determined as 0.0028; in the experiment with HLA-A*1101 (human) [2] it was 0.002.

B7: HPV18 E1 80-88 peptide … (peptide)
peptide: QVLHVLKRK
modifications: not checked
B7: in the experiment with HLA-A*0301 (human) [4], the binding affinity ratio relative to standard peptide (IC50 standard / IC50 test) was 0.0028.

B8: HPV31 E1 289 peptide … (B07 supermotif peptide) (peptide)
peptide: PPKLRSTAA
modifications: not checked
For the molecule B8, the binding affinity ratio (IC50 of standard peptide / IC50 of test peptide) with HLA-B*0702 (human) stood at 0.0014.

B9: HPV31 E6 111 … (peptide)
peptide: CPEEKQRHL
modifications: not checked
Consider B9, for which the results for the relative binding ratio (IC50 of standard peptide / IC50 of test peptide) in the experiment with HLA-B*5301 (human) and with HLA-B*5101 (human) were 0.0006 and 0.0074, respectively.

B10: HPV18 E7 peptide … (position 3, 9 amino acids) (peptide)
peptide: GPKATLQDI
modifications: not checked
For the molecule B10, the binding affinity ratio (IC50 of standard peptide / IC50 of test peptide) with HLA-B*3501 (human) was 0.0001; with HLA-B*5301 (human), 0.0001; with HLA-B*5101 (human), 0.0001; with HLA-B*5401 (human), 0.0002.

B11: HPV16 E7 11 … (peptide)
peptide: YMLDLQPET
modifications: not checked
For B11, the binding affinity ratio (IC50 of standard peptide / IC50 of test peptide) with HLA-A*0201 (human) stood at 0.14.

B12: HPV18 E6 peptide … (position 60, 10 amino acids) (peptide)
peptide: IPHAACHKCI
modifications: not checked
With B12, the binding affinity ratio (IC50 of standard peptide / IC50 of test peptide) in the experiment with HLA-B*0702 (human) was found to be 0.0065; in the experiment with HLA-B*3501 (human) it was 0.0001; with HLA-B*5301 (human), 0.0001; with HLA-B*5101 (human), 0.0046; with HLA-B*5401 (human), 0.0005.

B13: HPV18 E7 peptide … (position 16, 10 amino acids) (peptide)
peptide: EPQNEIPVDL
modifications: not checked
As to B13, the binding affinity ratio (IC50 of standard peptide / IC50 of test peptide) with HLA-B*0702 (human) worked out at 0.0001; with HLA-B*3501 (human), 0.0005; with HLA-B*5301 (human), 0.0001; with HLA-B*5101 (human) it was 0.0001; in the experiment with HLA-B*5401 (human), 0.0001.

B14: HPV18 E1 position 281 peptide … (peptide)
peptide: LILALLRYK
modifications: not checked
For B14, the figures for the binding affinity ratio (IC50 of standard peptide / IC50 of test peptide) with HLA-A*0301 (human) [1] and with HLA-A*1101 (human) [2] were 0.27 and 0.18, respectively.

B15: HPV18 E7 60-67 peptide TMLCMCCK (peptide)
peptide: TMLCMCCK
modifications: not checked
B15: the relative binding ratio (IC50 of standard peptide / IC50 of test peptide) with HLA-A*0301 (human) [4] was 0.024.

B16: HPV16 E6 85 … (peptide)
peptide: HYCYSLYGTTL
modifications: not checked
Consider B16, for which, in the experiment with HLA-A*2402 (human), the binding affinity ratio (IC50 of standard peptide / IC50 of test peptide) is 0.065 and the relative binding ratio (IC50 of standard peptide / IC50 of test peptide) (ratio to standard peptide) stood at 0.065.

B17: HPV18 E7 peptide … (position 55, 10 amino acids) (peptide)
peptide: EPQRHTMLCM
modifications: not checked
For the molecule B17, the binding affinity ratio (IC50 of standard peptide / IC50 of test peptide) was determined as 0.0026 in the experiment with HLA-B*0702 (human); 0.0002 with HLA-B*3501 (human); 0.0043 with HLA-B*5301 (human); 0.0003 with HLA-B*5101 (human); 0.0001 with HLA-B*5401 (human).

B18: HPV18 E1 position 536 peptide … (peptide)
peptide: WTYFDTYMR
modifications: not checked
For B18, the binding affinity ratio (IC50 of standard peptide / IC50 of test peptide) with HLA-A*0301 (human) [1] was found to be 0.0005; with HLA-A*1101 (human) [2], 0.012.

B19: HPV18 E6 peptide … (position 113, 9 amino acids) (peptide)
peptide: NPAEKLRHL
modifications: not checked
B19: the binding affinity ratio (IC50 of standard peptide / IC50 of test peptide) in the experiment with HLA-B*0702 (human) was 0.011; with HLA-B*3501 (human) it was 0.0001; with HLA-B*5301 (human) it was 0.0001; with HLA-B*5101 (human), 0.0001; with HLA-B*5401 (human), 0.0002.

B20: HPV16 E7 78 … (peptide)
peptide: TLEDLLMGTL
modifications: not checked
B20: the binding affinity ratio (IC50 of standard peptide / IC50 of test peptide) in the experiment with HLA-A*0201 (human) worked out at 0.0002.

B21: … (HPV16 E6, position 59, 9 amino acids) (peptide)
peptide: IVYRDGNPY
modifications: not checked
Turning to B21, in the experiment with HLA-A*1101 (human) [5] (setting [6]), the binding affinity ratio (IC50 of standard peptide / IC50 of test peptide) (ratio to standard peptide) amounted to 0.15.

B22: HPV18 E1 position 571 peptide … (peptide)
peptide: LTTNIHPAK
modifications: not checked
As for B22, the binding affinity ratio (IC50 of standard peptide / IC50 of test peptide) in the experiment with HLA-A*0301 (human) [1] is 0.091; in the experiment with HLA-A*1101 (human) [2], 0.12.

B23: HPV16 E7 55 … (peptide)
peptide: VTFCCKCDST
modifications: not checked
Take B23: the binding affinity ratio (IC50 of standard peptide / IC50 of test peptide) with HLA-A*0201 (human) turned out to be 0.0001.

B24: HPV16 E7 78 … (peptide)
peptide: TLEDLLMGT
modifications: not checked
Take B24: in the experiment with HLA-A*0201 (human) (setting [6]), the binding affinity ratio (IC50 of standard peptide / IC50 of test peptide) amounted to 0.0002.

B25: HPV16 E7 64 … (peptide)
peptide: TLRLCVQSTHV
modifications: not checked
Consider B25, for which the binding affinity ratio (IC50 of standard peptide / IC50 of test peptide) with HLA-A*0201 (human) is 0.0006.

B26: HPV18 E6 peptide … (position 110, 9 amino acids) (peptide)
peptide: KPLNPAEKL
modifications: not checked
Consider B26, for which the binding affinity ratio (IC50 of standard peptide / IC50 of test peptide) in the experiment with HLA-B*0702 (human) worked out at 0.035; with HLA-B*3501 (human), 0.0001; with HLA-B*5301 (human), 0.0001; with HLA-B*5101 (human) it was 0.0001; with HLA-B*5401 (human), 0.0002.

B27: … (HPV16 E6, position 125, 9 amino acids) (peptide)
peptide: HLDKKQRFH
modifications: not checked
Take B27: the binding affinity ratio (IC50 of standard peptide / IC50 of test peptide) (ratio to standard peptide) with HLA-A*1101 (human) [5] (setting [6]) was 0.0001.

B28: HPV18 E6 80-90 peptide … (peptide)
peptide: HYSDSVYGDTL
modifications: not checked
B28: the relative binding ratio (IC50 of standard peptide / IC50 of test peptide) (ratio to standard peptide) with HLA-A*2402 (human) was 0.0069.

B29: HPV16 E6 82 … (peptide)
peptide: EYRHYCYSL
modifications: not checked
As for B29, in the experiment with HLA-A*2402 (human), the binding affinity ratio (IC50 of standard peptide / IC50 of test peptide) worked out at 0.0051 and the relative binding ratio (IC50 of standard peptide / IC50 of test peptide) (ratio to standard peptide) is 0.0051.

B30: HPV16 E7 63 … (peptide)
peptide: STLRLCVQST
modifications: not checked
As for B30, in the experiment with HLA-A*0201 (human), the binding affinity ratio (IC50 of standard peptide / IC50 of test peptide) was determined as 0.0012.

B31: HPV18 E7 71-80 peptide … (peptide)
peptide: RIKLVVESSA
modifications: not checked
B31: in the experiment with HLA-A*0301 (human) [4], the relative binding ratio (IC50 of standard peptide / IC50 of test peptide) was 0.0005.

B32: … (HPV16 E6, position 134, 9 amino acids) (peptide)
peptide: NIRGRWTGR
modifications: not checked
B32: the binding affinity ratio (IC50 of standard peptide / IC50 of test peptide) (ratio to standard peptide) with HLA-A*1101 (human) [5] was determined as 0.0005.

B33: HPV18 E1 position 468 peptide … (peptide)
peptide: KSFLKGTPK
modifications: not checked
Turning to B33, the binding affinity ratio (IC50 of standard peptide / IC50 of test peptide) in the experiment with HLA-A*0301 (human) [1] stood at 0.0003; in the experiment with HLA-A*1101 (human) [2], 0.0015; with HLA-A*1101 (human) [3] it was 0.0015.

B34: HPV18 E1 position 119 peptide … (peptide)
peptide: NSGQKKAKR
modifications: not checked
Consider B34, for which the binding affinity ratio (IC50 of standard peptide / IC50 of test peptide) with HLA-A*0301 (human) [1] was determined as 0.0005; in the experiment with HLA-A*1101 (human) [2], 0.0002.

B35: HPV18 E7 94-102 peptide … (peptide)
peptide: LSFVCPWCA
modifications: not checked
For B35, the relative binding ratio (IC50 of standard peptide / IC50 of test peptide) with HLA-A*0301 (human) [4] turned out to be 0.0005.

B36: HPV18 E7 88-96 peptide … (peptide)
peptide: QLFLNTLSF
modifications: not checked
Turning to B36, in the experiment with HLA-A*0301 (human) [4], the relative binding ratio (IC50 of standard peptide / IC50 of test peptide) is 0.0005.

B37: … (HPV16 E6, position 117, 9 amino acids) (peptide)
peptide: LCPEEKQRH
modifications: not checked
For the molecule B37, the binding affinity ratio (IC50 of standard peptide / IC50 of test peptide) (ratio to standard peptide) in the experiment with HLA-A*1101 (human) [5] was determined as 0.0001.
